Results published in article PMC8794821, “SNX27 suppresses SARS-CoV-2 infection by inhibiting viral lysosome/late endosome entry” (Proceedings of the National Academy of Sciences of the …, 2022).
No end group written: not given here.

Biological target: PDZ domain of SNX27 (residues 40 to 135) (human, UniProt Q96L92 40-135)
Test: ITC; MicroCal iTC200, 25 °C; ACE2-PBM peptide (125 µM, 5% DMSO) in the syringe, PDZ protein (100 µM, 5% DMSO) in the cell; 20 mM Tris pH 8.0, 150 mM NaCl
Conditions: both partners purified

B1: ACE2-PBM peptide (-DDVQTSF-COO−) (peptide)
peptide: DDVQTSF-OH
notes: also called human ACE2-PBM; source: synthetic peptide (Beijing SciLight Biotechnology Ltd. Co.)
  Kd: 20 µM
